Experimental data published in publication PMC280649 (BMC Biochemistry, 2003).
Several values for one entry are separate records, joined by “and”; a condition that tells them apart may be missing. Equal entries are not always repeated.

What was measured:
[1] = biological target: CD150 (Homo sapiens) (UniProt Q13291); test: SPR; conditions: cited from earlier work
[2] = biological target: CD31 (Homo sapiens) (UniProt P16284); conditions: cited from earlier work
[3] = biological target: CAR (Homo sapiens) (UniProt P78310); conditions: cited from earlier work
[4] = biological target: NCAM (UniProt P13591); conditions: cited from earlier work
[5] = biological target: the molecule itself; test: SPR
[6] = biological target: the molecule itself; test: SPR; remark: listed apart in the source

Molecule: CD150 (from UniProt Q13291)
- Kd [1]: 200 µM

Molecule: CD31 (from UniProt P16284)
- Kd [2]: 12.5 µM

Molecule: CAR (from UniProt P78310)
- Kd [3]: 16 µM

Molecule: NCAM (from UniProt P13591)
- Kd [4]: 100 µM

B1: mCD147d0-2rCD4d3+4 (mouse CD147 domains 0 to 2 fused to rat CD4 domains 3 and 4) (domain or fragment, UniProt P18572 22-325, looked up)
chain: AAGFLKAPLSQERWAGGSVVLHCEAVGSPIPEIQWWFEGNAPNDSCSQLWDGARLDRVHIHAAYRQHAASSLSVDGLTAEDTGTYECRASSDPDRNHLTRPPRVKWVRAQASVVVLEPGTIQTSVQEVNSKTQLTCSLNSSGVDIVGHRWMRGGKVLQEDTLPDLHTKYIVDADDRSGEYSCIFLPEPVGRSEINVEGPPRIKVGKKSEHSSEGELAKLVCKSDASYPPITDWFWFKTSDTGEEEAITNSTEANGKYVVVSTPEKSQLTISNLDVNVDPGTYVCNATNAQGTTRETISLRVRSR
modifications: biotin on the C-terminal biotinylation sequence (BirA enzyme) in the immobilised copy; the soluble copy was unbiotinylated
- Kd [5]: 39 µM and 35 µM
- koff [6]: 0.7 s⁻¹
- t1/2 [6]: 1 s
